Laboratory results from a protein production outcome set (Wang et al. 2014).

Assay: label from the status in PepcDB records

| Sequence | protein production |
| --- | --- |
| MAYDIERYLDIRGAGDPTYGPTGELAFTLGTTGTAQVWALGAPGAWPTQLTFHDERVQWASFSPTREELAYGMDTGGDEFTQLHRVSGDGSEDVQLTAFPDAKHDWGGWSHDGDRIAYTANRRDASRFDVYVQGRDEAGANADCVRVGDTFDLPSVVGWSPSDDRLLVVDTHSNFDQDVAVLDVDTGEITRATAGLDADTRFSWVAWAPDGGGVYVTTDHDADTRYLGLLDPETGAISRVADGGDWPIEAVVTAHDAGRLAYVRNRDGYSELTIADAAGTTLTEQPTPELPDGVIRGLSWGPDGDTLAVVVSAATENPNVFVVDVATGAATQWTNAATAGIPKSTFREPELVRYETFDGREIPALFTRPDGDGPHPVIVDFHGGPEGQRRPSFLSLRQYFVDNGYAVFEPNVRGSSGYGATYMNLDNVRNRMDAVADGKAGVEWLTARTDIDADRVVAYGGSYGGFMVLASLTEYPELWAAGVDIVGIANFVTFLENTGDWRREHRESEYGSLDADREFLESISPTNNADRIRAPLLVLHGANDPRVPVGEAERIVEQASAHVPVEKHVFDDEGHGFSKRANKQAAYRAVVDFLDDHALEHHHHHH | failed |
| MTRFNRFRRTLMQWTGSLPLLGALPLSKLAQAQGAEQPAASGTPPAGGTRAPRFAYVGTYTFDAPGGTAGGPPARGIYVLAPRGDAWSQAQVVESANPSFLAVHPNQRCLYAINEIDVYEGRATGTAEAYAIDPRDGRLTLLNRQPLSLSGTIPAHVAVSPDGQHLAVALYGGGAYNVLPIGADGRLGSVSGLFKDTGSGPDTARQEAPHAHMVLFDPTGRHILGTDLGTDRINVFALEDGKLTPRDRAQLKPGGGPRHLALHPSGKLLYVISELDSTVACHGYDPATGRVLDERQRIATTPADYTGQKSGAALVMHPSGRFLYASNRRLKSEHPLADSIAAFSIDPASGRLAALQYWSEGLRFPRALTMADDGRHLYALSQKGDTILRLRIDDATGRLDQPAVVSNVPTPVCLVFAG | failed |
| MIQALLQRYEKKIERRKLEKRTAFGAFAGRIGLVSNLFLFVSKFMIGLLSGSVSIMADAINSLSDTISSVLTLVGFYIAGKPADKEHPYGHERFEYISGMLVSLVITFIGFEFLTTSVDRILHPESIKVTPILFAVLALSIGIKIWQGLFYKKVSAKIDSQALVASAKDSFNDVYTTLAVLISAFIEGVTGLRIDGYIGFLIAAYIIYSGLQLIREFINELMGMRPSQTEIDEMKNVLSKMETIVGYHDLLIHNYGPSQTFASVHIEIDDRWDLNKAHQTIDAIEAKFKEELDVNLVCHIDPVNLYDPTQQFVHQTIKKIIRSFDASLKVHDIRLVTHGEEPKILFDLVLPTESKLSEFELGVEIQRQVYEKIGRYKVEITFDHTYLLQ | failed |
| MCLALPAQIDQVLEDNKAIVNLGGITKEISTVLLEQVSEGEYVIIHAGFALTKLDEREANKTLSLFAHMLKDG | not failed |
| MLITISDIAWGIALSIWVAIVVLYISKLISKKFGAYVTRKAIHMLGGGIVAVLSPFVFNSPLVPIITSYLIMAYLITIRVLRKEMSWFMDKENLGEVFFAFSFGTVLLVMFILDPNYWTSTDLIYVAVLPLIFMSFGDGITGIIRNFVYKRRVKGLWGSMGMLIFCATVGYFVLNIPGLIAGILATVAELLPYIDDNISVPFLSFLFLYLFVRVL | failed |
| QLPSYRFNPNNHQSEQTLCVVCMCDFESRQLLRVLPCNHEFHAKCVDKWLKANRTCPICRAD | not failed |
| MPNANEDNPSALSQVQRRAVSELLRVSPVADELARRFQEAGFSLALVGGSVRDALLGRLGNDLDFTTDARPEDVLKIVRPWADAMWEVGIAFGTVGAQKEGYQIEVTTYRSEAYDRTSRKPEVSYGDSIEEDLVRRDFTVNAMAVALPEKEFIDPHGGLDDLAARILRTPGTPEESFSDDPLRMMRAARFAAQLDFEVAPDVVTAMTEMAGRIDIVSAERVRDELNKLVLSAHPRKGLTLLVDTGLADHVLPELPALRLERDEHHRHKDVYDHSLIVLEQAIALEENGPDLTLRLAALLHDIGKPRTRRFEKDGRVSFHHHEVVGAKMTKKRMTALKYSNDLVKDVSRLVELHLRFHGYGTGEWTDSAVRRYVRDAGPLLDRLHKLTRSDCTTRNKRRAAALSRAYDGLEERIAQLQEQEELDAIRPDLDGNQIMEVLGVGPGPVIGQAYKFLLELRLENGPMEYDAAVAALKEWWAEQN | failed |
| MTENVVCTGAVNAVKEVWEKRIKKLNEDLKREKEFQHKLVRIWEERVSLTKLREKVTREDGRVILKIEKEEWKTLPSSLLKLNQLQEWQLHRTGLLKIPEFIGRFQNLIVLDLSRNTISEIPPGIGLLTRLQELILSYNKIKTVPKELSNCASLEKLELAVNRDICDLPQELSNLLKLTHLDLSMNDFTTIPLAVLNMPALEWLDMGSNKLEQLPDTIERMQNLHTLWLQRNEITCLPQTISNMKNLGTLVLSNNKLQDIPVCMEEMANLRFVNFRDNPLKLKVSLPPSEGTDEEEERELFGLQFMHTYIQESRRRADHQVNGSTTLPISINTDG | not failed |
| MENKPDYFHHIEHRKFQSSSKITLWLSLVITMIFTVVEFVGGIVSNSLALLSDSFHMLSDVLALGLSMVAIYFSSKPPTKNYTYGFLRLEIIVAFLNGLALIVISLGIMYEGIMRIIHPRPVESGIMILIAFIGLIANIVLTIILMISLKKENNINIQSALWHFIGDLLNSLGIIVAFVLIHFTGWNIVDPIISILISLIILRGGYKIIKNASKVLMERVPDRYDTDEIMGAMKDVEGVIDIHEFHLWSVTTNQSSLSAHVVLSDDYIKSPYATINKVSDLLKTQYGLEHVTLQIENINLNHLDEEYFKQLQE | failed |
| MGHHHHHHSHMIESGIWSRMSEMIRSSGHSHHCSPQEYRFLPPVGDDDLPGDLQSLSWLTAVDVPRLQQMANGRIDLGSSGVTHPHPGALAGTADLHVGAAPRPLLRRSQTAVVPRGVLGLSPIGNHRASAEQMNQFPAGGQASSGLQEMPQLYSPATQIPFPLPLGSQQCPPAGLYGSPFSARPSYPQAHGAMHASQEPHPKHYPKPIYSYSCLIAMALKNSKTGSLPVSEIYSFMKEHFPYFKTAPDGWKNSVRHNLSLNKCFEKVETKSSGSSRKGCLWALNLARIDKMEEEMHKWKRKDLAAIHRSMANPEELDKLISDRPESCRRPGKRGEPKAPMLTHATTVAMAHSCLAISQLPPKPLMTLSLQSVPLHHQLQPQAHLAPDSPAPAQTPPLHALPSLSPGPLPQPAMGRVPGDFLNINSDMNTEVDALDPSIMDFALQGNLWEEMKEDSFSLDTLEAFGDSPLGCDLGAPSLTPVSGNSDQSFPDVQVTGLYAAYSTAADGVAPSAANSAQYLGTPGNKPIALL | failed |
| ENEIERPEDMRVRTLANKSKMKVSIVQQIDRKVALDDIAVSHGLDFPELLSEVETIVYSGTRINIDYFINEVMDEDHLEDIFEYFKESTTDSLEEAMQELGKDYSEEEIRLVRIKFLSEMAN | not failed |
| MNMIDQLNITDFQVFTDENSDKSVSKIYKFSSKMILSDFHAQPHGFLNGGASLALAEITAGMASNAIGSSQYFALGQSISANHLNSKKCEGFVNACGLLLKNGKRNHVWEIKITDENETLISQITVVNALVPQKNSDKLEHHHHHH | failed |
| MKVVVVDGGGLMGVETALCVRDHGHEVALVQAPGDPHAPLSDEVAEALRGCSVLVDLAHQPSVDIGTLAEDHGLVVDEAALVDSWAGSTGALLRAGAAAGVRHHVCLSVVGVDRIGREGVFRALRNREAMARRSGIPYSILRATQTFDAAEDIATAATEDWIVWVPPAEVRPVSLTDVATLLAHTAVTRPVNGVREIAGPEQFRLDAFVRTALLTEAEYRQVRTDALSPFYGARLRPRDLLPGPDAFIARTTYREWFTGRPAPDTTS | failed |
| MKQIRLLAQYYVDLMMKLGLVRFSMLLALALVVLAIVVQMAVTMVLHGQVESIDVIRSIFFGLLITPWAVYFLSVVVEQLEESRQRLSRLVQKLEEMRERDLSLNVQLKDNIAQL | not failed |
| FSKTQRWAEPGEPICVVCGRYGEYICDKTDEDVCSLECKAKHLLQVKEKEEKS | not failed |
| MTSASAPSFNPGKGPGSAVGIALLGFGTVGTEVMRLMTEYGDELAHRIGGPLEVRGIAVSDISKPREGVAPELLTEDAFALIEREDVDIVVEVIGGIEYPREVVLAALKAGKSVVTANKALVAAHSAELADAAEAANVDLYFEAAVAGAIPVVGPLRRSLAGDQIQSVMGIVNGTTNFILDAMDSTGADYADSLAEATRLGYAEADPTADVEGHDAASKAAILASIAFHTRVTADDVYCEGISNISAADIEAAQQAGHTIKLLAICEKFTNKEGKSAISARVHPTLLPVSHPLASVNKSFNAIFVEAEAAGRLMFYGNGAGGAPTASAVLGDVVGAARNKVHGGRAPGESTYANLPIADFGETTTRYHLDMDVEDRVGVLAELASLFSEQGISLRTIRQEERDDDARLIVVTHSALESDLSRTVELLKAKPVVKAINSVIRLERD | failed |
| MATAGNPWGWFLGYLILGVAGSLVSGSCSQIINGEDCSPHSQPWQAALVMENELFCSGVLVHPQWVLSAAHCFQNSYTIGLGLHSLEADQEPGSQMVEASLSVRHPEYNRPLLANDLMLIKLDESVSESDTIRSISIASQCPTAGNSCLVSGWGLLANGRMPTVLQCVNVSVVSEEVCSKLYDPLYHPSMFCAGGGQDQKDSCNGDSGGPLICNGYLQGLVSFGKAPCGQVGVPGVYTNLCKFTEWIEKTVQAS | not failed |
| MAAPRPGPLRPARGFAPMNNVNGILLVVAAMAAFSIEDMFIKKLSVTVPIGQILLVLGVFCSAAFLTMAVATRKRVFSRAAWSPLLLIRAATEAVSALTFATALSLVDLSTVAAVFQAMPLVVTMGAALFLGEQVGWRRWSAITVGFVGVLMIIRPGMAGFQPAQLLVVASVISVAARDLITRRIDAHVASAVVSFQAYLALILGGAGILLVSGTALVPVEPGHWGPYAGAILFGVLGYYGIVTAMRVGEASVVTPFRYTRLLFSLLAGVLVFGERPDWPTLAGGALIIGSGLYTFLRERRLARELAAVPA | failed |
| MDTIQKRPRTRLSPEKRKEQLLDIAIEVFSQRGIGRGGHADIAEIAQVSVATVFNYFPTREDLVDDVLNKVENEFHQFINNSISLDLDVRSNLNTLLLNIIDSVQTGNKWIKVWFEWSTSTRDEVWPLFLSTHSNTNQVIKTMFEEGIERNEVCNDHTPENLTKMLHGICYSVFIQANRNSSSEEMEETANCFLNMLCIYK | failed |
| MGHHHHHHSHMGEIESYCNKELGPLPTKAPTLSKNVLDLFSLKGKVASVTGSSGGIGWAVAEAYAQAGADVAIWYNSHPADEKAEHLQKTYGVHSKAYKCNISDPKSVEETISQQEKDFGTIDVFVANAGVTWTQGPEIDVDNYDSWNKIISVDLNGVYYCSHNIGKIFKKNGKGSLIITSSISGKIVNIPQLQAPYNTAKAACTHLAKSLAIEWAPFARVNTISPGYIDTDITDFASKDMKAKWWQLTPLGREGLTQELVGGYLYLASNASTFTTGSDVVIDGGYTCP | failed |
| MLHWISLLCAGCLEMAGVALMNQYAKEKSVKWVLLIIVGFAASFSLLSYAMETTPMGTAYAVWTGIGTAGGALIGILFYKEQKDAKRIFFIALILCSAVGLKILS | failed |
| MAERSFSQLPISSSHIGRRTGNTRRGIFPVSEYWIHAIPVIVFLCFFTLWIFSHSVSVMNDGEIMSIHRLEKSMAVRNESHVSLAILASSAVSPASSALVAVVSTNQNLTTFHNATQSQQNATQSVNKAKQPHAV | not failed |
| MRIIAITEKVIKELFRDKRTLAMMFLAPILIMFLMNVMFSANSNTKVKIGTINVNTKVVSNLDNIKHIQVRSFKFNSSAKKALKSNKIDALISEDNKSYTVFYANTDSSKTTLTRQAFKTAVNTMNSKELISQVKILANKNPKLAQSLQTRSKYIKEKYNYGNKNTGFFAKMIPILMGFMVFFFVFLISGMALLKERTSGTLDRLLATPVKRSDIVFGYMLSYGILAIIQTIVIVLSTIWLLDIQVVGSIFSVIIVNFILALVALSLGILMSTLAKSEFQMMQFIPLIIMPQLFFSGIIPLENMASWAQTVGKILPLSYSGDALTKIIMYGQGLPNVSSNLLVLLLFLIILTIANIFGLKRYRKV | failed |
